The supplement of paper PMC9233669
Variants at the floor of the assay were thinned out.

How the values were obtained:
biotinyl-Leu-oxazolone = test: self-aminoacylation, catalytic enhancement (BLO) (fold over background); higher = more active; k-Seq, kA / k0A0; sequences stand for … in GGGAAUGGAUCCACAUCUACGAAUUC…UUCACUGCAGACUUGACGAAGCUG
Method in brief: (§1)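 Working in 50 μL HEPES/NaCl/KCl/MgCl2/CaCl2 buffer with 5% acetonitrile at pH 6.9–7.0, mutagenized RNA pools (0.43 μM; 21-nt variable region) were reacted with 2–1250 μM of each biotinyl-aminoacyl-oxazolone for 90 minutes at room temperature. Streptavidin capture followed, with quantification by triplicate qPCR and Illumina sequencing. Catalytic enhancement is reported as median kA over the uncatalyzed rate, the low-activity peak of a bimodal Gaussian fit to the data.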

biotinyl-Val-oxazolone = test: self-aminoacylation, catalytic enhancement (BVO) (fold over background); higher = more active; k-Seq, kA / k0A0; sequences stand for … in GGGAAUGGAUCCACAUCUACGAAUUC…UUCACUGCAGACUUGACGAAGCUG
Method in brief: as §1

biotinyl-Met-oxazolone = test: self-aminoacylation, catalytic enhancement (BMO) (fold over background); higher = more active; k-Seq, kA / k0A0; sequences stand for … in GGGAAUGGAUCCACAUCUACGAAUUC…UUCACUGCAGACUUGACGAAGCUG
Method in brief: as §1

biotinyl-Trp-oxazolone = test: self-aminoacylation, catalytic enhancement (BWO) (fold over background); higher = more active; k-Seq, kA / k0A0; sequences stand for … in GGGAAUGGAUCCACAUCUACGAAUUC…UUCACUGCAGACUUGACGAAGCUG
Method in brief: as §1

biotinyl-Ile-oxazolone = test: self-aminoacylation, catalytic enhancement (BIO) (fold over background); higher = more active; k-Seq, kA / k0A0; sequences stand for … in GGGAAUGGAUCCACAUCUACGAAUUC…UUCACUGCAGACUUGACGAAGCUG
Method in brief: as §1

biotinyl-Phe-oxazolone = test: self-aminoacylation, catalytic enhancement (BFO) (fold over background); higher = more active; k-Seq, kA / k0A0; sequences stand for … in GGGAAUGGAUCCACAUCUACGAAUUC…UUCACUGCAGACUUGACGAAGCUG
Method in brief: as §1

Sequence	self-aminoacylation (biotinyl-Leu-oxazolone)	self-aminoacylation (biotinyl-Val-oxazolone)	self-aminoacylation (biotinyl-Met-oxazolone)	self-aminoacylation (biotinyl-Trp-oxazolone)	self-aminoacylation (biotinyl-Ile-oxazolone)	self-aminoacylation (biotinyl-Phe-oxazolone)
AUUCACCUAGGUCCUGGGGUG [Fam2.2 aminoacylation ribozyme variant]	9.12	4.05	7.35	7.11	4.6	57.2
AUUACCCUGGACAUCGAGUUA [Fam2.1 aminoacylation ribozyme variant]	0.772	0.75	0.682	0.639	0.805	0.728
CCCCACUUCAAGCCAUCGGUC [Fam1B.1 aminoacylation ribozyme variant]	2.63	2.82	2.87	4.79	2.33	10
AAGUUUGCUAAUAGUCCCCAG [Fam3.1 aminoacylation ribozyme variant]	0.928	0.901	1.01	1.69	1	1.27
AUUCACCUAGCUCAUUGGGUG [Fam2.2 aminoacylation ribozyme variant]	1.62	1.69	1.89	2.07	1.44	5.14
AUUCACCUAGGCUAUCGGGUG [Fam2.2 aminoacylation ribozyme variant]	4.84	3.06	3.76	3.79	2.43	21.8
CUACUUAAGACAAUCGGUCUG [Fam1A.1 aminoacylation ribozyme variant]	0.668	0.783	0.909	0.71	0.775	0.817
CUACUCAAAACAAUCGGUCUG [Fam1A.1 aminoacylation ribozyme variant]	0.676	0.968	1.11	1.23	1.02	1.27
AUUACCCUGUGCAUCGAGUGA [Fam2.1 aminoacylation ribozyme variant]	5.11	3.05	6.14	5.89	2.47	16.8
AAGUUUGCUAAAAAUCGCAAG [Fam3.1 aminoacylation ribozyme variant]	0.891	0.721	0.925	0.986	1.09	0.949
AUUACGCUGGACAUCGAGUGA [Fam2.1 aminoacylation ribozyme variant]	4.51	2.98	4.42	4.65	2.63	16.1
CCACACUUCAUACAAUCGGUC [Fam1B.1 aminoacylation ribozyme variant]	0.703	0.744	0.608	0.726	0.618	0.729
CCACACUUCAAGCAAGCGGUA [Fam1B.1 aminoacylation ribozyme variant]	1.13	1.2	1.02	0.921	1.39	0.741
AUUCACCUAUGUCAGCGGGUG [Fam2.2 aminoacylation ribozyme variant]	4.78	2.33	3.6	3.73	2.87	28.7
AAUACCCUGGUCAUCGGGUGA [Fam2.1 aminoacylation ribozyme variant]	11.8	7.46	12.1	15.9	7.82	77.3
CUACUUCAAACAGUUGGUCUG [Fam1A.1 aminoacylation ribozyme variant]	0.79	0.736	0.538	0.595	0.893	0.982
AUUCACUUAGGUCAUCGGGUG [Fam2.2 aminoacylation ribozyme variant]	8.1	3.86	6.36	6.28	3.87	48.3
UAGUUUGCUAAGAGUCGCAAG [Fam3.1 aminoacylation ribozyme variant]	0.952	1.18	1.1	1.22	1.12	1.77
AAGUUUGCUGAGAGUCGCAAG [Fam3.1 aminoacylation ribozyme variant]	1.03	0.873	1.01	1.18	0.969	1.91
UUUACGCUGGUCAUCGAGUGA [Fam2.1 aminoacylation ribozyme variant]	4.78	4.07	4.46	6.37	3.56	10.2
GCACACUUAAAGCAAUCGGUC [Fam1B.1 aminoacylation ribozyme variant]	1.15	1.18	1.06	1.49	1.25	1.1
AUUCACCUAUGUCACCGGGUG [Fam2.2 aminoacylation ribozyme variant]	4.89	2.27	3.22	3.43	2.34	19
CUGCUUCAAACAAUCAGUCUG [Fam1A.1 aminoacylation ribozyme variant]	1.21	0.77	0.723	12.5	0.738	40.5
AUUCAGCUAGUUCAUCGGGUG [Fam2.2 aminoacylation ribozyme variant]	9.16	4.95	7.01	7.26	5.34	52.3
AUUAACCUGGUCAUCGAGAGA [Fam2.1 aminoacylation ribozyme variant]	0.844	0.783	0.749	0.872	0.888	0.933
